Test results from patent publication US20070086956A1, “Method for accelerating the rate of mucociliary clearance” (BAYER AKTIENGESELLSCHAFT, priority 1998, published 2007).

What was measured:
[1] = system: guinea pig tracheal epithelial cells; assay: Short circuit current (Isc) in cultured guinea pig tracheal epithelial (GPTE) cells; type: cell-based; conditions: 50 ug/mL; over a 30 minute period; FIG. 23
Method: (§1) The aim of this study was to investigate the effect of Bikunin (1-170) (See Example 17) on Isc on GPTE cells in vitro. GPTE cells were seeded onto 1.2 cm diameter, 0.4 um pore size Snapwell™ inserts (Costar UK). Cells were grown to confluence and mounted in modified Ussing chambers 2-4 days after placement on air-liquid interface. Inserts were immersed in Krebs buffer (KBR) solution and bubbled with 95% O2/5% CO2 warmed to 370 C.
After a 20 minute equilibration period, transepithelial potential difference was then clamped to 0 mV using a WPI EVC 4000 voltage clamp. Ag/AgCl electrodes were used to monitor Isc. Once a stable baseline was achieved (typically 20-30 mins), cells were treated with amiloride (30 uM). Once a response to amiloride was obtained, it was washed out with KBR solution. After return to baseline and equilibration, Bikunin (1-170) described in Example 17 (10 to 50 ug/mL) or PBS was added. 30 minutes following agent treatment amiloride (30 uM) was added.

[2] = system: ovine tracheal epithelial cells; assay: Short circuit current (Isc) in cultured ovine tracheal epithelial (OTE) cells; type: cell-based; conditions: 100 ug/mL; over a 90 minute period; FIG. 24
Method: as §1, with “17),” for “17)”, “in OTE” for “on GPTE”, “OTE” for “GPTE”, “3-5” for “2-4”, “37°” for “370”
After a 20 minute equilibration period, transepithelial potential difference was then clamped to 0 mV using a WPI EVC 4000 voltage clamp. Ag/AgCl electrodes were used to monitor Isc. Once a stable baseline was achieved (typically 30 mins), cells were treated with amiloride (10 uM). Once a response to amiloride was obtained, it was washed out with KBR solution. After return to baseline, Bikunin (1-170) described in Example 17 (25, 50 or 100 ug/mL) or PBS was added. 90 minutes following agent treatment amiloride (10 uM) was again added.

guinea pig trachea = assay: Tracheal potential difference in the guinea-pig; type: in vivo; conditions: 5 ug topical instillation; three hours of treatment; relative to vehicle; FIG. 15
Method: The aim of this study was to investigate the effect of the Kunitz serine protease inhibitor Bikunin, and the sodium channel blocker amiloride on guinea-pig tracheal potential difference 3 hours post treatment. These agents were delivered into the cephalad trachea by topical instillation. TPD was monitored 2 hours later for 60 minutes. The procedure used in this Example is described in Newton et al. in “Cilia, Mucus and Mucociliary Interactions,” Ed., Baum, G. L. et al., Marcel Dekker, New York, 1998; Newton et al., Ped. Pulm. S17, Abs. 364, 1998).
Aqueous formulations of Bikunin (1-170) (5 and 50 ug/mL (SEQ ID NO: 52)) (as described in Example 17 below) and amiloride (obtained from Sigma Chemicals, St. Louis, Mo., USA)(100 uM) were prepared, sterile filtered and endotoxin tested prior to use. […]
Two hours following agent treatment, guinea-pigs were anaesthetised for a second time with Hypnom® and Hypnovel® and immobilised in a supine position. Rectal temperature, measured with a thermistor probe was maintained at 37° C. by manual adjustment of a heat lamp. […] 20 min. following induction of i.m. anaesthesia the tracheal agar electrode was inserted into the cephalad trachea and tracheal potential difference was measured for 60 minutes. […]

B1: CHO Bikunin (1-170): Glycosylated placental bikunin (1-170), SEQ ID NO: 52, expressed in Chinese hamster ovary cells (Example 17) (protein, listed as Homo sapiens)
chain: ADRERSIHDFCLVSKVVGRCRASMPRWWYNVTDGSCQLFVYGGCDGNSNNYLTKEECLKKCATVTENATGDLATSRNAADSSVPSAPRRQDSEDHSSDMFNYEEYCTANAVTGPCRASFPRWYFDVERNSCNNFIYGGCRGNKNSYRSEEACMLRCFRQQENPPLPLGSK
modifications: glycosylated, CHO-expressed
sodium current [1]: inhibited sodium current | sodium current [2]: significantly inhibited sodium current | tracheal potential difference (guinea pig trachea): inhibited the potential difference
